Assay results as given in PMC6854486.

System: RcGTA gp1 (small terminase TerS), MBP fusion (Rhodobacter capsulatus SB1003)
Test: EMSA
Conditions: 25 mM HEPES pH 8.0, 50 mM K-glutamate, 1 mM DTT, 0.05% Triton X-100, 4% glycerol, 1 ug poly(dI-dC), 100 ng DNA in 10 ul, room temperature 30 min; 0.8% agarose …

| Substance | binding signal (% bound at 40 uM protein) |
| --- | --- |
| rcc01397 flanking amplicon | 87 |
| rcc01398 flanking amplicon (1.4 kbp) | 87 |
